Measured values taken from the DeepSol protein solubility set.

Assay: soluble on expression in E. coli; label from the status in PepcDB or PDB records

| Sequence | soluble on expression in E. coli |
| --- | --- |
| MGSDKIHHHHHHMEKEMLTFDITNDFIVGDRITKETLNKYSKLPHKIKAGLFLLCVEGSVQASINLAKYTINKYDFVTLVPSNFIQFHEISDDARFYFAGFSSEFMTNINFIKSTMSFLPVITEHPIMPLEESVAQLYIDGYRLLIRAQSLSPSYSMVNKNLVIAYLTIFMQGTAELYKNHSHWTNGIRTRTNEIYRKFIQLVVEHYTTEHSVSFYAAQLNLSLPHFCTTIKKAIGLTPLEIISSIITMDAKAQLRSTDLTVKEIAFSLGFNNLSFFNKYFRQHTGMTPQEYRRMKIPSST | not soluble |
| VVVEDSGASFGESLLDTTSEPGKILVKRISGGSGITVTDYGDQVEIEASVTDALSLMYSTSTGGPASIAANALTDFDLSGALTVNSVGTGLTKSAAGIQLAAGKSGLYQITMTVKNNTVTTGNYLLRVKYGSSDFVVACPASSLTAGGTISLLIYCNVLGVVSLDVLKFSLCNDGAALSNYIINITAAKIN | soluble |
| MHIRLTLPFYIYPFHFFRGSKMVKIPKSHPRYWSLLYREKIIRGMEEGITAKAGLIAHGRGEAFDYLIGERTIPPAEEAMKVAVAKLLLANHPVISVNGNVAALVPRETVELAKVTRAKLEVNLFYRTEERVKKIAEVLKKTGAKEVLGLNPTKRIPGLESERGKVEEDGIWKADVVLVPLEDGDRTEALVRMGKFVITVDLNPLSRSARMANVTIVDNIIRAYPRMIELAKEMRDYSREELEEIVNNYDNNKILSEVLLHIRRRLEELAKEGLEHHHHHH | not soluble |
| MGSDKIHHHHHHMAVVDEAKLRYLDFLSREDRVRHHRYVEEMKQYDMMRSGDINAIAESTRLWNSGLYGYLSDDPLKNAKYRFVTTITLATRFAIEGGMDEEDAYNASDLYIQNLENCKTPDDVRRLHTDMMTFFTWAMADMQKAETHSKAVNECLDYIHYHLHEKITVPILAEHVHLNPTYLSELFKRETGTAISQYITDKRMEAAENMLKYSEYSFDEIAQILAYRSQSHFSKVFKKHSGMTPGEYRTKYAQNGIWPE | not soluble |
| MGSDKIHHHHHHMKIGVIQASTRTDLNQLLFEAVKQAAGNQHEIVNFGVFPQETENYSYVEVAIMISLLIETGAIDFMVSGCSSGQGMMMACNSLPGLQAGFIQTPQDAFLFGRINNGNVASLSLGLNFGWAGELNLQYALNELFHGEFGIGYPPEVAERKREEAQLLLTLNDITKKSFLEIIDQLDKALLFKILKRKDLTAYLFDYGSNSLLLERLQFFRN | not soluble |
| QIYSARYSGVDVYEFIHSTGSIMKRKKDDWVNATHILKAANFAKAKRTRILEKEVLKETHEKVQGGFGKYQGTWVPLNIAKQLAEKFSVYDQLKPLFDF | soluble |
| INIEIAYAFPERYYLKSFQVDEGITVQTAITQSGILSQFPEIDLSTNKIGIFSRPIKLTDVLKEGDRIEIYRPLLADPKEIRRK | not soluble |
| MKIDASRRGILTGCWRKASNGIRPPWSGDESHFLTHCTRCDACINACENNILQRGTGGYPSVNFKNNECSFCYACAQACPESLFSPRHTRAWDLQFTIGDACLAYQSVECRRCQDSCEPMAIIFRPTLSGIYQAQLNSQLCNGCGACAASCPVSAITAEYLHAH | not soluble |
| MLNLSRLSRKLLGWLGRPLSAAHSGEVRQRGPQTHVIILDGTMSTLEPGRETHAGQTYRLMCEMGARVSVFYEAGVQWTSWRTTPDVMMGRGLNRQIRRAYGYLASRYRPGDRIFLIGYSRGAYAVRSLAGVIDMVGLLKAEHATVRNIRQAYRHYECDVQGPHAQVFRDLYCHRDVMIEMVGVWDTVKALGLRLPVLWRLSEQRHAFHSHHLGRSVRHGYHALALNETRNVFEPILWDCKPEFRGHVEQVWFRGTHGDVGGQLGGDERARPLANLSLVWMLERAEHLGLPLPKDWHARFPTDPNAPSVGTWSGWGKIFLLRSARTVGRDPSERLHESVIGDTLPEGLPAPYLRSRSFGLEHHHHHH | soluble |
| MKHHHHHHMTFPGDTAVLVLAAGPGTRMRSDTPKVLHTLAGRSMLSHVLHAIAKLAPQRLIVVLGHDHQRIAPLVGELADTLGRTIDVALQDRPLGTGHAVLCGLSALPDDYAGNVVVTSGDTPLLDADTLADLIATHRAVSAAVTVLTTTLDDPFGYGRILRTQDHEVMAIVEQTDATPSQREIREVNAGVYAFDIAALRSALSRLSSNNAQQELYLTDVIAILRSDGQTVHASHVDDSALVAGVNNRVQLAELASELNRRVVAAHQLAGVTVVDPATTWIDVDVTIGRDTVIHPGTQLLGRTQIGGRCVVGPDTTLTDVAVGDGASVVRTHGSSSSIGDGAAVGPFTYLRPGTALGADGKLGAFVEVKNSTIGTGTKVPHLTYVGDADIGEYSNIGASSVFVNYDGTSKRRTTVGSHVRTGSDTMFVAPVTIGDGAYTGAGTVVREDVPPGALAVSAGPQRNIENWVQRKRPGSPAAQASKRASEMACQQPTQPPDADQTP | soluble |
| MHCSLYTRFNVENAGGDFSVGGARVCFRIPENPCSPRPAVAGRANPLPPVADFGMKEVRTKKKKHMTNDVNGMKKKCGRPALGRTRKLTRGVTVKFSPVSYEALRFRAGKSGRSLAVYIREAALAATVTARHTPEENALLRSLAGMANNLNQLTKLSHQTGFYRTRLLIEGLLGKLKRIMDDYRPKGG | not soluble |
| TVEDSESDMDDAKLDALMGNEGEEEEDDLAEIDTSNIITSGRRTRGKVIDYKKTAEELDKKE | soluble |
| MSDGSDDDTNNDGNYCKNVSYNFLIQRLAEVSNRKCLLLPKKKNRVDYISIMQTAEFYPELVNSSPPLEPGFTSCEVFVVDKKVDKDTLHLDNFSPYHIGATRRTLERQHSYFYRVNESGNFVPAIKTNGTHILRILVSILGSCPALNRKIYRMVKIESQNKNCLPSLIVYTFEPGHEIPKPNAPAILRRQTSDEIQKILNIPGTSFSQAHSEAVLNRFYDDLPIRDEASDQKRARYSIESTSSTNNQLNEINSFVVPKFEGRQESEQLFRDVKVEQFEESAEISINNRALSPHIQPSKTSVVNRPNQQNRKFQNYDMFSAGVISTATVPAPMFHPHITPIADLKDDDGYDPEELTQRNKLASLYRLVDLFRWSQGIYNHITVRVSTDPDEILINAFGQLYSEVSASSLIKVDLDGTVIDGGSTNFGVNQAGYVLHSAIHNGRPEVKCVVHLHHPSVVAVSAQKCGLLPISQESMIVGDVGYHEYRGILIDEAERALLVRDLGDRNVMILRNHGFVVCGESIEHALSLTYHLIIACETQIRTVPGGNTDNVHFPAQSAIKQVYKVASQGGGGVNRQNGHVNSMQWKKGELEWQAYMRQLDAQGYVTGNVPN | not soluble |
| MGQNQFRWSNEQLREHVEVIDGTRSPHIVLRNATYLNSYIREWMQANIWIYDDRIIYVGEKLPEQLHECEVIDCDGKYVVPSYIEPHAHPYQLYNPETLANHAMQFGTTTFINDNLTLFFTLKRELEHHHHHH | not soluble |
| MGSDKIHHHHHHMTVHHHHHTHHVSLHKIKKLFSKHSSHGHKLTRDEARSALHDIEHLAKELHFQKVFDHHAHDGHISLKGFLSFISPHHGHHTHHAHGAHPGHHEVHHHHHHVKAQDSSSSSSSSSSSSSSSSSSSSSSSSSSSESEDEKHHHKKHAKKHLKKHHKKAESSSSSSSSSSSSSSSSSSSSSSESEDEKHHHKKHAKKHLKKHHKKAESSSSSSSSSSSSSSSSSSSSSSSESEDEKHHHKKHAVKKHHKKAESSSSSSSSSSSSSSSSSSEDEKHHHKKHAAKKHVKHHKKAASSSSSSSSSSSSSSSSSSSSSSESEDEKKKKKVHHKKSHGKKHHKKAASSSSSSSSSSSSSSSSSSSESEDEKKHAPAHHEHHEHKDGAHHEHKEGEHHEHAAHHDEHGVHHRHHGEHHGTHHSPAHHGEHGTHHGHHGEHHHAPAHHGHHESHGHGHHSPAHHGHHGEHHHAPAHHGHHGEHHHAPAHHGHHGEHGTHHGHHGSHHSPAHHGHHGEHHHAPAHHGHHGEHGTHHGHHGEHHHAPAHHGHHGEHGTHHGHHGSHHSPAHHGHHGEHHHAPAHHGHHGHHGSHGVHHGHHESHGHGHHAPAHHGHHGEHGVHHGHHGAGYGAHHGHHGAHHHHAPHHEHHEHHGDHHHGSHGVHHGHHGTHHSLAHHGHHGGHGTHHGAHHSPAHHGHHGAHHEHGAHHGAHHGHHDDKENHHHHGHHSKHSKKQHTKKSHKKSH | not soluble |
| MGSDKIHHHHHHMHMQSPIQRRKSRQIHVGHVPVGGDAPIAVQSMTNTDTLDVDATVAQIRQLEAAGADIVRVSVPTMDAAEAFGQIKRQVSVPLVADIHFDYKIALRVAELGVDCLRINPGNIGREDRVRAVVDAARHHGIPIRIGVNAGSLEKDLQKKYGEPTPEALVESAMRHIEHLDRLDFQDFKVSVKASDVFMAVAAYRQLAQRIDQPLHLGITEAGGLRSGTVKSSIGLGLLLMEGIGDTIRVSLAADPVEEIKVGYDMLKSLRLRSKGINFIACPSCSRQNFDVIGTMNALEERLDDIMTPLDVSVIGCVVNGPGEAKESDIGLTGGDPANLVYIDGKPASKLRNDHLVDDLEALIRDKVREKEARERDTIAREA | not soluble |
| MRQQNGWVLKGGTNIYCRIPGARQTKDLDLYRRDDPTSSTGAAESLVSAMNGYKIGPYIFHVIHPRQSGGVGTVDSERIDVTVIHGINNRLVSFGVDVSGDLEVTGTVEPVTVATSYKVHTEFLPQRFKVYSYPVASQIADKICAMYERHGNTPPGRASTRYHDLYDVALMARELTVSAFDLRSALDTQCRVRNMSLPNHLTIPDESWKDQYPIKARNFGDEQWGLTELDEALRVAGLLINPILNREFKESDRAWNCTALLWE | not soluble |
| KTDPRSMNSRVFIGNLNTLVVKKSDVEAIFSKYGKIVGCSVHKGFAFVQYVNERNARAAVAGEDGRMIAGQVLDINLAAEPKVNR | soluble |
| MGSDKIHHHHHHYQQQYKMAVHVTPESENDPEWPSKKKWFDASEWLSTPQYIKINDFYVINTRYVPIGDLNSDQIIFYLKKGINGSEKRFSELSVLSDLDNQEFRELMKDKLSSEYLETQFEKETLTPTIDFFLIYFIYNNKRYEVPIRREYSGNKYHYWVLEGSVKKAGYWHERFPTSYSYRKYLNK | not soluble |
| MSSGVKASPHRFNRFEIKYLITEQDVPALREQLATRMSTDPLSPPGGYRVESLYFDSADLRCYTEKIEGLKFRRKLRIRTYGDGVLTPESTVSVEIKQRVNKVTQKRRLDLPFIYALALGDSTGAAVGEQVDVEKLLEISPENQHALIHEMASFAKNYRLRPIATTKYHREAFVGADAEESSRVTIDHGVSGRDRDFLLGQDLEDRPTVAQGLAVVEIKCDERVPFWLTDMTAQLEMSVIRMSKYCETIEAFHNRPASAFGAVDPIFLEHHHHHH | not soluble |
| GAMGMDEGDGEGNILPIMQSIMQNLLSKDVLYPSLKEITEKYPEWLQSHRESLPPEQFEKYQEQHSVMCKICEQFEAETPTDSETTQKARFEMVLDLMQQLQDLGHPPKELAGEMPPGLNFDLDAL | soluble |
| MAIKSVLFLRSNPVAPDPRVAKEAQALADAGYKVGVVAWDRTGELPKVEETPFGLVERLPIKGSFRSGLANLLPLVRFNLALLWHLIKRRSTYDAIHACDFDTVLPALVAAKLLGKKVVYDVFDFYADMLRATPGWIKSIIKKVDLRLMGWVDAVILADESRVKQIQGARPKRLTFIYNSPPIEDPFPLPPAPPPLRIAYVGLLQKERGILQVIELLRRHPEWELDLGGFGGDEEEIRRAVADLPNVRYHGRVPYEKALELMSNAHLLFATYDPSIPNHRYSSANKLFEAMAIGRPIVVARDTGMDQLVQQYALGFVVEYGNLAALEDAFARVASWDLQRFEEFSQKAQEVYVTRFAWRIMKERLIALYRKLEE | soluble |
| MFYLSELEHSLRVPPHLLNLPLEDAIKSVLQNVFLDKVLADLGLCVSIYDIKSVEGGFVLPGDGAATYKVGLRIVVFRPFVGEVIAAKFKESDANGLRLTLGFFDDIYVPAPLMPKPNRCEPDPYNRKQMIWVWEYGEPKEDYIVDDACQIKFRVESISYPSVPTERAEDAKPFAPMVVTGNMDDDGLGPVSWWDSYEQVDQEE | soluble |
